According to patent US20190375786A1, “STABLE PEPTIDES AND METHODS OF USE THEREOF” (Fred Hutchinson Cancer Research Center, priority 2016, published 2019):
“Also recorded” adds a separate entry of the source. Positions of bridges follow the written chain, without caps; N, C: chain ends. Residues, ends and D or L forms follow the SMILES beside them. No end group written: not given here.

Assays:
[1] = target: trypsin (Sus scrofa, UniProt P00761); assay: Trypsin digestion resistance of soluble peptide, RP-HPLC; format: in vitro ADME, porcine; design: purchased Sigma Aldrich 6567; conditions: HPLC; for resistance to trypsin, Example 7 conditions (in words): 50 U trypsin (500 U/ml), 30 min at room temperature, with or without 10 mM DTT; for resistance to trypsin digestion (in words): 500 U/ml trypsin (50 U per reaction), 30 minutes at 37.5° C.
Method in brief: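 Read-out was RP-HPLC (C-18, water/acetonitrile with 0.1% TFA, 5-45% over 10 min) of peptide left after trypsin treatment. Digest: 12.5 μg peptide, 500 U/ml porcine trypsin, PBS, 37.5° C for 30 min, stopped by soybean trypsin inhibitor; samples then reduced (10 mM DTT) or left non-reduced.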

[2] = Stability in simulated gastric fluid (SGF, pH 1.05), RP-HPLC; format: physicochemical; conditions: HPLC vs non-reduced peptide
Procedure: (§1) Peptides were first suspended in 500 ul of ddH2O to a stock concentration of 2 mg/ml. Reactions were prepared by adding 12.5 ug of peptide from the stock solution to a 10 mM solution of DTT in PBS and allowed to incubate at room temperature for 30 minutes. Other reactions were prepared with 12.5 μg peptide with or without 500 U/ml pepsin in simulated gastric fluid (SGF; pH 1.05; […] sodium chloride in 0.7% (v/v) hydrochloric acid) and were incubated for 30 minutes at 37.5° C. Some reactions were quenched with a final concentration of 100 mM Tris base and 10 mM dithiothreitol (DTT). Some reactions were performed in all of the above components, including simulated gastric fluid, pepsin, Tris, and DTT (referred to as SPTD). Reversed phase HPLC (RP-HPLC) was run on samples using an Agilent 1260 HPLC equipped with a C-18 Poroshell 120B column. Sample were analyzed by a gradient method with a mobile phase of Solvent A (water with 0.1% TFA) and Solvent B (acetonitrile with 0.1% TFA). Solvent B was ramped up from 5%-45% of the mobile phase over a period of 10 minutes. Peptides were detected at an absorbance of 214 nm and 280 nm.
This example illustrates peptide stability in biological conditions including in the presence of reducing agents, proteases, oxidative conditions, acidic conditions, and simulated gastric fluids. […] Various peptides were suspended in 500 μl of ddH2O at a stock concentration of 2 mg/ml. This was then diluted in accord with the reaction conditions to prevent adverse buffering effects. Reactions were prepared with 12.5 μg peptide dissolved in solution and, in some samples, additionally suspended in a 10 mM solution of DTT, simulated gastric fluid (pH 1.05; […] sodium chloride in 0.7% (v/v) hydrochloric acid), 500 U pepsin (5000 U/ml pepsin), 50 U trypsin (500 U/ml trypsin) with 1 mg/ml inhibitor in PBS, or a combination of any of these conditions. All protease reactions were incubated for 30 min at room temperature and then quenched. Pepsin reactions were quenched by adding Tris base to a final concentration of 0.075 M. Trypsin reactions were quenched by adding excess soybean trypsin inhibitor. RP-HPLC was then run on samples using an Agilent 1260 HPLC equipped with a C-18 Poroshell 120B column. Sample were analyzed by a gradient method with a mobile phase of Solvent A (water with 0.1% TFA) and Solvent B (acetonitrile with 0.1% TFA). Solvent B was ramped up from 5%-45% of the mobile phase over a period of 10 minutes.

[3] = target: T1, pepsin (Sus scrofa, UniProt P00791); assay: Pepsin digestion resistance in simulated gastric fluid, RP-HPLC; format: in vitro ADME, porcine; design: purchased Sigma Aldrich P7012; conditions: HPLC; for resistance to pepsin, Example 7 conditions (in words): 500 U pepsin (5000 U/ml) in SGF, 30 min at room temperature, with or without DTT; for resistance to pepsin digestion (in words): 500 U/ml pepsin (50 U per reaction) in SGF, 30 minutes at 37.5° C.
Method in brief: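 Digestion resistance read by reversed-phase HPLC (C-18, 0.1% TFA, 5–45% acetonitrile over 10 min; 214/280 nm) after 12.5 μg peptide spent 30 min at 37.5 °C in pH 1.05 simulated gastric fluid, with or without 500 U/ml pepsin. Some samples quenched with Tris base and DTT.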

[4] = Resistance to reduction by DTT, RP-HPLC; format: physicochemical; conditions: 10 mM DTT; HPLC vs non-reduced peptide
Method in brief: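 Peptide (12.5 μg from a 2 mg/ml stock, or 0.015 mM final in PBS) was held 30 min at room temperature with or without 10 mM DTT. Reduced and non-reduced forms were compared by C-18 RP-HPLC using a 5–45% acetonitrile/0.1% TFA gradient over 10 min, with detection at 214 and 280 nm.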

[5] = target: T1, pepsin; assay: Stability in SPTD (simulated gastric fluid, pepsin, Tris and DTT), RP-HPLC; format: in vitro ADME; conditions: SGF pH 1.05 with 500 U/ml pepsin, 100 mM Tris, 10 mM DTT
Procedure: as §1

[6] = Resistance to reduction by reduced glutathione (GSH), HPLC; format: physicochemical; conditions: 10 mM reduced glutathione (GSH); HPLC vs non-reduced peptide
Procedure: This example describes stability of designed or engineered peptides under reducing conditions. Peptides that are designed or engineered to interact with one or more target proteins in the cell, such as proteins in the nucleus, are exposed to reducing conditions in the cytosolic compartment of cells. Thus, it is advantageous for peptides of this disclosure to display stability in reducing conditions. Stability of peptides of this disclosure was tested in 10 mM DTT and 10 mM GSH. GSH is a more physiologically relevant reducing agent for testing peptide stability in intracellular conditions. An example of a peptide-target protein interaction is a peptide binding to a TEAD protein.

[7] = test system: TEAD protein; assay: Binding of surface-displayed (SDGF) peptide to biotinylated target protein after reducing agent, flow cytometry; format: cell-based; conditions: HEK-293 cells displaying peptide, 20 nM biotinylated target protein
Procedure: Designed or engineered peptides of this disclosure were also tested to evaluate if the peptides' binding activity to their target protein (e.g., TEAD protein) was affected by exposure to reducing conditions. HEK-293T suspension cells were transfected with a surface display GFP FasL(SDGF) vector comprising SEQ ID NO: 39 (SDGF-SEQ ID NO: 39) or SDGF vector comprising SEQ ID NO: 43 (SDGF-SEQ ID NO: 43) construct. Cultures were grown for two days, followed by incubation in 10 mM GSH or 10 mM DTT. Finally, cells were stained with biotinylated-target protein to evaluate the binding activity of a peptide to the target protein. FIG. 15 illustrates the stability of peptides of SEQ ID NO: 39 and SEQ ID NO: 43 after exposure to a reducing agent. Each peptide was expressed on a cell surface and tested for binding to a target protein after cells expressing SDGF-SEQ ID NO: 43 or SEQ ID NO: 39 were exposed to a reducing agent. FIG. 15A illustrates a flow cytometry plot showing binding of HEK-293 suspension cells transfected with SDGF-SEQ ID NO: 39 (GFP) incubated for 5 minutes in PBS, 10 mM DTT, or 10 mM reduced glutathione (GSH) before staining with 20 nM biotinylated target protein and 20 nM AF647-streptavidin. FIG. 15B illustrates a flow cytometry plot showing binding of HEK-293 suspension cells transfected with SDGF-SEQ ID NO: 43 (GFP) incubated for 5 minutes in PBS, 10 mM DTT, or 10 mM reduced glutathione (GSH) before staining with 20 nM biotinylated target protein and 20 nM AF647-streptavidin. FIG. 15C illustrates quantification of the AF647 mean fluorescence intensity (MFI) of cells falling within the “slice” gate shown in FIG. 15A and FIG. 15B. […] In other words, peptides of SEQ ID NO: 39 and SEQ ID NO: 43 were resistant to reduction by GSH.

[8] = Circular dichroism thermal stability, heating 20° C. to 95° C.; format: physicochemical; conditions: 10 mM phosphate buffer pH 7.4; heated 20° C. to 95° C.
Procedure: (§2) Protein secondary structures were assessed using Circular Dichrosim (CD). CD spectra were measured with a Jasco J-720W spectropolarimeter using a 1.0 mm path length cell. Protein samples in 10 mM phosphate buffer (pH=7.4) were at 25-30 μM protein concentration. Samples were analyzed at wavelength ranges of […]. Data were expressed in terms of relative ellipticity [θ]; (mdeg). To determine thermal stability of proteins, samples were subjected to incremental increase in temperature at a ramp of 2° C./min from 20° C. to 95° C. Stability and protein unfolding were monitored at 220 and 215 for α-helix and β-sheet secondary structures, respectively. Data are expressed in terms of relative ellipticity [θ], reported in mdeg. For SEQ ID NO: 43 and its point mutant variants, no changes to the α-helix-dominated structure were observed upon heating up to 95° C. […] Additionally, protein melting temperature (Tm) determination was performed by monitoring protein unfolding using SYPRO Orange dye (Molecular Probes). In brief, 0.1 mg/mL protein sample in 20 μL total volume PBS buffer were mixed with 24, of 10× SYPRO Orange dye. Dye intercalation into the hydrophobic protein core following protein unfolding was assayed using the C1000 Touch Thermal Cycler with CFX96 Deep Well Real-Time System (BioRad). Samples were heated from 20° C. to 95° C. with stepwise increments of 0.5° C. per minute and a 5 sec hold step for every point, followed by fluorescence reading. Tm were calculated by analyzing the derivatives of Relative florescence Units (RFU). FIG. 17D illustrates this SYPRO Orange melting assay of Peptides.

[9] = SYPRO Orange melting assay; format: physicochemical; conditions: heating from 20° C. to 95° C.
Procedure: as §2

[10] = Resistance to elevated temperature, HPLC; format: physicochemical; conditions: 100° C. for 1 hour; HPLC
Method in brief: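 Peptides were incubated at room temperature, 70° C or 100° C for one hour in ddH2O; another protocol used 70° C, 75° C or 100° C for one hour in 0.5 mM PBS, then pelleting and analysis of the supernatant. Remaining peptide was measured by C-18 RP-HPLC, 5–45% acetonitrile/0.1% TFA over 10 min.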

T1 sequence (P00791 60-385): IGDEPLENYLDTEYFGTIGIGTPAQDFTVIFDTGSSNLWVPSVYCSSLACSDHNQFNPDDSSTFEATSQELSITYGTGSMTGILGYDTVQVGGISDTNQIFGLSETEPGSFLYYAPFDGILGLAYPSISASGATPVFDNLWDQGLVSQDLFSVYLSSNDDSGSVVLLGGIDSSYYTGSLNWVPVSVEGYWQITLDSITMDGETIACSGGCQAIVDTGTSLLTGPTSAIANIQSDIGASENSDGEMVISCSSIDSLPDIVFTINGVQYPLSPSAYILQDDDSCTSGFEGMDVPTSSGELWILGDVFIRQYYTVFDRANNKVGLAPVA
trypsin, sequence (P00761 9-231): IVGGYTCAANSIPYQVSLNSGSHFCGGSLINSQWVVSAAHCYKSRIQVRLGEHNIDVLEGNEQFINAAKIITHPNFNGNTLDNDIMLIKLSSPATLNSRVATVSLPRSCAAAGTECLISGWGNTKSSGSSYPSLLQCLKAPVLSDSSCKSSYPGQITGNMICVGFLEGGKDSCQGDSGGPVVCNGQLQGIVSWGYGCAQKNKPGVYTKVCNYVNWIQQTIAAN

Row | Compound | resistance to trypsin, Example 7 conditions (in words) [1] | stability in simulated gastric fluid / low pH (in words) [2] | resistance to pepsin, Example 7 conditions (in words) [3] | resistance to trypsin digestion (in words) [1] | resistance to reduction by DTT (in words) [4] | resistance in SPTD (SGF, pepsin, Tris, DTT) (in words) [5] | CD secondary structure signature before (Pre) and after (Post) incubation at 95° C. [8] | melting temperature (Tm) [9] | resistance to pepsin digestion (in words) [3] | other results
1 | GSGVPINVRSRGSRDSLDPSRRAGMRFGRSINSRSHSTP [SEQ ID NO: 177, reference compound] | degraded | stable | degraded | – | – | – | – | – | – | –
2 | GSQFTNVSCTTSRECWSVCQRLHNTSRGRCMNRRCRCYS [SEQ ID NO: 2] | – | remained intact | – | highly resistant | remained intact; also recorded: highly resistant | resistant | – | – | – | –
3 | GSPDEYIERAKECCKKGDIQCCLRYFEESGDPNVMLICLFCP [SEQ ID NO: 39] | – | – | – | – | – | – | – | – | – | resistance to GSH reducing conditions [6]: resistant; binding to target protein after DTT treatment ([7]; 5 minutes in 10 mM DTT): partial loss in binding; binding to target protein after GSH treatment ([7]; 5 minutes in 10 mM GSH): no loss in binding
4 | GSPDEYIERAKECCKKQDIQCCLRIFDESGDPNVMLICLFCW [SEQ ID NO: 44] | – | – | – | – | partially resistant | – | similar; also recorded: identical | no melting temperature could be determined | – | –
5 | CC[C@H](C)[C@@H]1NC(=O)[C@@H]2CSSC[C@H](NC(=O)[C@H](CCCCN)NC(=O)[C@@H](NC(=O)[C@H](CC(N)=O)NC(=O)[C@@H](NC(=O)[C@@H]3CCCN3C(=O)[C@@H](NC(=O)CNC(=O)[C@H](CO)NC(=O)CN)C(C)C)[C@@H](C)CC)C(C)C)C(=O)N[C@@H](CCCNC(=N)N)C(=O)NCC(=O)N[C@@H](CO)C(=O)N[C@@H](CCCNC(=N)N)C(=O)N[C@@H](CC(=O)O)C(=O)N[C@H]3CSSC[C@H](NC(=O)[C@H](CCCCN)NC(=O)[C@H](CO)NC(=O)[C@H](CC(N)=O)NC1=O)C(=O)N[C@@H](Cc1c[nH]cn1)C(=O)N[C@H](C(=O)N[C@H](C(=O)N1CCC[C@H]1C(=O)O)[C@@H](C)O)CSSC[C@H](NC(=O)[C@@H]1CCCN1C(=O)[C@H](CC(=O)O)NC(=O)[C@H](CC(C)C)NC3=O)C(=O)N[C@@H](CCCCN)C(=O)N[C@@H](CCCCN)C(=O)N[C@@H](C)C(=O)NCC(=O)N[C@@H](CCSC)C(=O)N[C@@H](CCCNC(=N)N)C(=O)N[C@@H](Cc1ccccc1)C(=O)NCC(=O)N[C@@H](CCCCN)C(=O)N2 [SEQ ID NO: 27] (H-GSGVPINVKCRGSRDCLDPCKKAGMRFGKCINSKCHCTP-OH; disulfide 10-30, 16-35, 20-37) | remained intact | highly resistant; also recorded: remained intact | remained intact | highly resistant; also recorded: fully resistant | – | highly resistant | – | – | highly resistant | –
6 | GSPDEYIERAKECCKKQDIQCCLRIFDESKDPNVMLICLFCP [SEQ ID NO: 45] | – | – | – | – | partially resistant | – | identical; also recorded: similar | no melting temperature could be determined | resistant | resistance to incubation at 100° C. (in words) [10]: resistant
